Assay results reported in patent publication US20230382948A1, “DELIVERY OF ENDOTHELIAL CELL-LADEN MICROGEL ELICITS ANGIOGENESIS IN SELF-ASSEMBLING ULTRASHORT PEPTIDE HYDROGELS” (KING ABDULLAH UNIVERSITY OF SCIENCE AND TECHNOLOGY, priority 2020, published 2023).

Legend:
[1] = Peptide gelation study (vial inversion method); assay type: physicochemical; conditions: for Time to form hydrogel: 4 mg/mL, room temperature, in the presence of PBS
Description: The preweighed (as per the required final concentration) peptide powder was dissolved in 0.9 mL of Milli-Q® water in a glass vial. The solution was vortexed for 5-10 s to obtain a clear and homogeneous solution. To this peptide solution, 0.1 mL of PBS buffer (10×, w/o Ca^2+ and Mg^2+) was added. To ensure a homogeneous distribution of buffer in the solution, the glass vial was further vortexed for 2-3 s. The glass vial was kept undisturbed on the bench, and hydrogel formation was observed using the vial inversion method, as shown in FIG. 9. The pH of the solutions of IVFK (SEQ ID NO. 1) and IVZK (SEQ ID NO. 2) was 5.57 and 5.48 at a 5 mg/mL concentration, respectively. After the addition of PBS, the pH changed to 7.7 and 7.6 for IVFK (SEQ ID NO. 1) and IVZK (SEQ ID NO. 2), respectively. The pH of the Milli-Q® water and phosphate buffer used was 6.7 and 7.4, respectively.

[2] = SEM of microgels; assay type: physicochemical; conditions: for Microgel surface fiber bundle thickness: SEM
Description: The surface topography of the microgels was visualized using a FEI Magellan XHR Scanning Electron Microscope with an accelerating voltage of 3 kV. The SEM samples were prepared by dehydrating the peptide microgels in a gradually increasing ethanol concentration. The dehydrated microgels were then dried in a Leica EM CPD300. The dried peptides were sputter coated with 5 nm […] before imaging.

[3] = tested on: HUVECs; assay: 3D SUP hydrogel bead assay coculture (angiogenesis in vitro assay); assay type: cell-based, human; conditions: for Endothelial network formation in bulky hydrogel: after 20 days of coculture, HUVEC-laden microgels, HDFn-loaded bulky hydrogel
Description: This assay was done by iterating the 4 combinations between SUP bulk-hydrogels ((3) and SUP microgels (p) (i.e., β-IVFK (SEQ ID NO. 1)+μ-IVFK (SEQ ID NO. 1); β-IVFK (SEQ ID NO. 1)+μ-IVZK (SEQ ID NO. 2); βIVZK (SEQ ID NO. 2)+μ-IVFK (SEQ ID NO. 1); β-IVZK (SEQ ID NO. 2)+μ-IVZK (SEQ ID NO. 2)). The next procedure is the same for all combinations using as an example β-IVFK (SEQ ID NO. 1)+μ-IVFK (SEQ ID NO. 1). HUVECs were cultured on μ-IVFK (SEQ ID NO. 1) for 24 h as described previously. By the bead assay seeding day, IVFK (SEQ ID NO. 1) powder for β-hydrogel was dissolved at 8 mg/mL in sterile water 1 h before seeding. Meanwhile, HDFn cells were harvested and resuspended in 2 xPBS at 1.2×10^6 HDFn cells/mL, and simultaneously, HUVEC laden μ-IVFK (SEQ ID NO. 1) were spun down in a tube at 50 g for 5 min. The supernatant was discarded, and 200 μL of HUVEC-ladenμ-IVFK (SEQ ID NO. 1) was mixed with 200 μL of HDFn cells in 2×PBS. Immediately, 100 μL of IVFK (SEQ ID NO. 1) solution at 8 mg/mL was poured on the culture dish and mixed with 100 μL of HUVEC-laden μ-IVFK (SEQ ID NO. 1) with HDFn cells in 2×PBS. The 3D hydrogel bead assay coculture was incubated at 37° C. for 10 min to guarantee β-IVFK (SEQ ID NO. 1) gelation. The final concentration of β-IVFK (SEQ ID NO. 1) was 4 mg/mL. Afterward, 2 mL of EGM-2 (EBM supplemented with singleQuots) was added to each dish containing the 3D hydrogel bead assay coculture, and the medium was changed every other day until fixation for immunofluorescence on culture day 8 and day 21.
The medium was removed from the 3D SUP hydrogel bead assay coculture samples and incubated with PBS at 37° C. for 15 min. Samples were fixed with 4% formaldehyde (v/v) in PBS for 30 min at 22° C. and washed with PBS for 15 min at 22° C. under rocking. Later, samples were detached from the bottom of the plate using a bent spatula and transferred to individual wells in a 24-well plate where they were permeabilized with 0.5 mL per well of (v/v) Triton® X-100 in PBS for 1 h at 22° C. under rocking. After, samples were blocked overnight at 4° C. in a wet chamber under rocking with 0.5 mL per well of 10% (v/v) goat serum in PBS containing 0.01% (v/v) Triton® X-100. From the next step and on, samples were protected from light all of the time. Samples were incubated for 36 h at 4° C. in a wet chamber under rocking with anti-CD31 Alexa® Fluor 647 and anti-Vimentin Alexa® Fluor 488, both diluted 1/100 in blocking buffer. Samples were washed with PBS for […] at 22° C. with shaking, replacing the PBS every hour. Then, cell nuclei were stained with 0.1 μg/mL DAPI in PBS for 5 min at 22° C. and washed three times with PBS for 5 min Finally, samples were transferred to 27 mm glass bottom dishes and imaged with a CLSM Zeiss® 710 or 880. Imaging of the entire sample was done by whole mount Z-stack tile scanning, and zoom-in images were Z-stack imaging with orthogonal views. Maximum intensity projections of the whole mount and zoom-in are presented.

| Substance | Critical gelation concentration in bulky hydrogels [1] [wt %] | Time to form hydrogel [1] [min] | Microgel stability through SEM sample preparation ([2]; 1.5 wt %, critical point drier) | Microgel surface fiber bundle thickness [2] | Endothelial network formation in bulky hydrogel [3] | Endothelial sprouting ([3]; soft bulk hydrogel 4 mg/mL, after 8 days in culture) | Endothelial network, comparison of bulky hydrogels ([3]; IVFK versus IVZK bulky hydrogel, 20 days of coculture) | Lumen (branched hollow structures), comparison of bulky hydrogels ([3]; IVFK versus IVZK bulky hydrogels) |
| --- | --- | --- | --- | --- | --- | --- | --- | --- |
| Ac-Ile-Val-Cha-Lys-NH2 (IVXK; HELM PEPTIDE1{[ac].I.V.[Cha].K.[am]}$$$$V2.0; SMILES CC[C@H](C)[C@H](NC(C)=O)C(=O)N[C@H](C(=O)N[C@@H](CC1CCCCC1)C(=O)N[C@@H](CCCCN)C(N)=O)C(C)C) [IVZK, self-assembling ultrashort tetrapeptide, Z = cyclohexylalanine, forms hydrogels and microgels] | 0.3 | 10 | stable enough to maintain their 3D spherical structure | around 20 nm | developed an evident endothelial network | show initial signs of sprouting |  |  |
| Ac-Ile-Val-Phe-Lys-NH2 (Ac-IVFK-NH2) [self-assembling ultrashort tetrapeptide, forms hydrogels and microgels] | 0.4 | 10 |  | around 20 nm | developed an evident endothelial network |  | more extended and complex | more visible and also larger |
